Assay results as given in US20080311132A1.

Experiments:
C5 = C5 (UniProt P01031); assay: SPR (Biacore), CVF on the chip, C5 in solution
Factor H = Factor H (UniProt P08603); assay: SPR (Biacore), CVF on the chip, factor H in solution
Factor B [1] = target: Factor B (UniProt P00751); assay: SPR (Biacore), CVF on the chip, factor B in solution, in EDTA
Factor B [2] = target: Factor B (UniProt P00751); assay: SPR (Biacore), CVF on the chip, factor B in solution, with Mg
Factor B [3] = target: Factor B (UniProt P00751); assay: SPR (Biacore), CVF on the chip, factor B in solution, with factor D and Mg
[4] = target: Bb, the activated form of factor B (UniProt P00751); assay: SPR (Biacore) at 25° C., half-life of the C3 convertase formed on CVF on the chip
Chain of Bb, the activated form of factor B (P00751 260-764 limits assumed): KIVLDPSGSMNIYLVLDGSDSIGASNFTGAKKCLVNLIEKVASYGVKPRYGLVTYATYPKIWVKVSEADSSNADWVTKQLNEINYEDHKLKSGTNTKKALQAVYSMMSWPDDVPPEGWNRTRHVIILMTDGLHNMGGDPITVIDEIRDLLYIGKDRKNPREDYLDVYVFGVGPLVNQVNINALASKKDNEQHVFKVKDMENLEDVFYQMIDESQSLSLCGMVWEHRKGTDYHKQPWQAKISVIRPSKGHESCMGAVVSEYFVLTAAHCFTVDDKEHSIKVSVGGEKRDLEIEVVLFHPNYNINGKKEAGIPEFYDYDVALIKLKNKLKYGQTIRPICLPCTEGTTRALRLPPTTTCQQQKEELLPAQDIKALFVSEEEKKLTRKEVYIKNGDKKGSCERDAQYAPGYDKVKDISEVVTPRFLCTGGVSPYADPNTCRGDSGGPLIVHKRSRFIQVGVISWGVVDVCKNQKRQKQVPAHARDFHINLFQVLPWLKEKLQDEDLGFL

Chain of Cobra Venom Factor (Q91132 23-649 limits assumed): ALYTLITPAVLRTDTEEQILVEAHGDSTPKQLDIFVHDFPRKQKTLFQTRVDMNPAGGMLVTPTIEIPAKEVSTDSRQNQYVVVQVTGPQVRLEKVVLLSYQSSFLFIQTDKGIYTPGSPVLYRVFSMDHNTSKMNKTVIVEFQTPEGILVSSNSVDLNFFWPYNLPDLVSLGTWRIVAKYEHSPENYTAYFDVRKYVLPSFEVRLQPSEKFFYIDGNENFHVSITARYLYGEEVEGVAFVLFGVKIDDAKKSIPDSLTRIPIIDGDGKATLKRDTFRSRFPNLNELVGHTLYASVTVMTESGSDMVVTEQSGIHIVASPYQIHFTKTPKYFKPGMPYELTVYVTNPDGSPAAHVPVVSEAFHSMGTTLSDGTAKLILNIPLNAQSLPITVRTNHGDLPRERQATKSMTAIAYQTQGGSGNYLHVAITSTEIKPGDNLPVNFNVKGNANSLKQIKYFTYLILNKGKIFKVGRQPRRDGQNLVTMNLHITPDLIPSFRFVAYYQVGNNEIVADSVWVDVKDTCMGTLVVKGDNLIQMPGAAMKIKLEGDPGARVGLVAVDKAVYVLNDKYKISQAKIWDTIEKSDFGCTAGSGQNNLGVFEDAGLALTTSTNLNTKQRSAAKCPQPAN
Chain of Cobra Venom Factor (Q91132 733-984 limits assumed): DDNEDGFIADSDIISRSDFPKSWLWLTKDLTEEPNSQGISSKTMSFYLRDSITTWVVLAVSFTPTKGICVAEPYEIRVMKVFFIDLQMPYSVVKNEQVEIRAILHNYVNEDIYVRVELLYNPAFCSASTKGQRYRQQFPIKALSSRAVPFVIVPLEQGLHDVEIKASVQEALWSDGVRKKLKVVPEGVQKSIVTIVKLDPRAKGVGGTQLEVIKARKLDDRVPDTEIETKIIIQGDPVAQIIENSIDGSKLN
Chain of Cobra Venom Factor (Q91132 1264-1642 limits assumed): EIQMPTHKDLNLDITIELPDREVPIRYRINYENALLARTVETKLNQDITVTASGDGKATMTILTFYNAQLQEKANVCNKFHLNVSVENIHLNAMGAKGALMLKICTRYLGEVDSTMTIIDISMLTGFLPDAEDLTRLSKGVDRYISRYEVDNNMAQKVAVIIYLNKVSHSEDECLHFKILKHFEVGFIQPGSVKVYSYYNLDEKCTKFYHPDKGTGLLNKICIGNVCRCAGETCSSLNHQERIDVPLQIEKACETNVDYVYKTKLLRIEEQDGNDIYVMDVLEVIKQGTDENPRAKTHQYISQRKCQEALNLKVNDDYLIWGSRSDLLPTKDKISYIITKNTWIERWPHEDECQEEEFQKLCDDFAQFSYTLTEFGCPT
Chain of Factor B (P00751 26-764 limits assumed): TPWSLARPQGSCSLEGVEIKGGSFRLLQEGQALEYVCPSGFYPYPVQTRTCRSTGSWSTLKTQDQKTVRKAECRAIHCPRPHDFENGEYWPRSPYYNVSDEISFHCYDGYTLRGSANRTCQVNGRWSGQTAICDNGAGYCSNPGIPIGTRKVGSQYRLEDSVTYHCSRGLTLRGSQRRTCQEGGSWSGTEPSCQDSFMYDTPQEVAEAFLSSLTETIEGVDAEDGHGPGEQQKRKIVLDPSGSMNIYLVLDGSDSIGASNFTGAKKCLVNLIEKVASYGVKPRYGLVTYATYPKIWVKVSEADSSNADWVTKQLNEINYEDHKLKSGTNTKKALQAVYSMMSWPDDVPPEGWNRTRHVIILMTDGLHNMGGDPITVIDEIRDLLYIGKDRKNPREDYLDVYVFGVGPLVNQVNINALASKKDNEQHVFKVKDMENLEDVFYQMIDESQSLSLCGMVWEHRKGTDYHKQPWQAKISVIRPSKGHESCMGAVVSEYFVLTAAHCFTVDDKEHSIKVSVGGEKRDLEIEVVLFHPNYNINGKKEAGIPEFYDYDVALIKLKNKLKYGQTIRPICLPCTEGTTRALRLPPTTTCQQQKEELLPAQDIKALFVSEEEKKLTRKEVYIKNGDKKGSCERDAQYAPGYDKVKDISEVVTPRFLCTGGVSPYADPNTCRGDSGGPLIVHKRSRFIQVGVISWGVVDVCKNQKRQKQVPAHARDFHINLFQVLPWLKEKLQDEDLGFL
Chain of C5 (P01031 19-673 limits assumed, form in doubt, chain 1 of 2): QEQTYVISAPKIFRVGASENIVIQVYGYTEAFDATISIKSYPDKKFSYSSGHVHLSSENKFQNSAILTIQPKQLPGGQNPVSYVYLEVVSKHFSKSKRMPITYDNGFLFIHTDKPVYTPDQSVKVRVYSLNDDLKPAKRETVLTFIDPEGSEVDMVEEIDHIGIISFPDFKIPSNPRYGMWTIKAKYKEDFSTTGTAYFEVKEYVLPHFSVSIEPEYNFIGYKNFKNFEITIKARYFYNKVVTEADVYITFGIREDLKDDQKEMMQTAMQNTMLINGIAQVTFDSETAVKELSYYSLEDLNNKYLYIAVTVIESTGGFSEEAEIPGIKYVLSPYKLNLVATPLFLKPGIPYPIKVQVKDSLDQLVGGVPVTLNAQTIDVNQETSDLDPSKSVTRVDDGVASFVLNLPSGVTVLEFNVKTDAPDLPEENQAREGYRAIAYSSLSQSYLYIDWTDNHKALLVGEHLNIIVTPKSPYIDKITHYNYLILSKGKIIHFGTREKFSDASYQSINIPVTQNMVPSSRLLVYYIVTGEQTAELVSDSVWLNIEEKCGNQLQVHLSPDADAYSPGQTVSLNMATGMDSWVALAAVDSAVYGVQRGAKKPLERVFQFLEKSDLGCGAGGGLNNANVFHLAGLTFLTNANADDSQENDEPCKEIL
Chain of C5 (P01031 678-1676 limits assumed, form in doubt, chain 2 of 2): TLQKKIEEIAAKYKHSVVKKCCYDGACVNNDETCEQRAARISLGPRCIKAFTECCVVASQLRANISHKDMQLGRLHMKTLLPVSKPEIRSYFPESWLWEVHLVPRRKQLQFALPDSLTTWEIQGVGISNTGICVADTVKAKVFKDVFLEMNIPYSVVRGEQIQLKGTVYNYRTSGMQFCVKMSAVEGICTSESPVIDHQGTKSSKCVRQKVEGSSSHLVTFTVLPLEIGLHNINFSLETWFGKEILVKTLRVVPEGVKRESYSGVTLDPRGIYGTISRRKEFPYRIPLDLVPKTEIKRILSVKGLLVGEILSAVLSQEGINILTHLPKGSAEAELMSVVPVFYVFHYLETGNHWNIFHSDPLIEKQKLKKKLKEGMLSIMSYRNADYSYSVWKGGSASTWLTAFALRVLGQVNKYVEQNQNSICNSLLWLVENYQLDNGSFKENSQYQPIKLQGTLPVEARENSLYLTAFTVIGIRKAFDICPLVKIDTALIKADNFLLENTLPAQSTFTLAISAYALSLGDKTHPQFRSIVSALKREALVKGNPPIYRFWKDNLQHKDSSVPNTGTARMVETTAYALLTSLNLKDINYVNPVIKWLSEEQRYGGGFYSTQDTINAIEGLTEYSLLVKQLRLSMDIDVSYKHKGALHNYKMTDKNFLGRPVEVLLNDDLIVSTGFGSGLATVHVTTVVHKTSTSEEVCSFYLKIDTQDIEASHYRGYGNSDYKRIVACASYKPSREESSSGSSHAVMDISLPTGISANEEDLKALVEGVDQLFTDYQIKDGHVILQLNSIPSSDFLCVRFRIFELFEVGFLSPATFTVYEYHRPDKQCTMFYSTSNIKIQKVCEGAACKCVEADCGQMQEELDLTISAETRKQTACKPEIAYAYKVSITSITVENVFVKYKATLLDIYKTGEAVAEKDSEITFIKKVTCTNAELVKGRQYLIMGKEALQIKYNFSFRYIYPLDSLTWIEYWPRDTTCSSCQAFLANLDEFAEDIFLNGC

Substance: Cobra Venom Factor (from UniProt Q91132 23-649; Q91132 733-984; Q91132 1264-1642)
- Amount of protein bound (RU) (C5): 617 RU
- Amount of protein bound (RU) (Factor H): -14 RU
- Amount of protein bound (RU) (Factor B [1]): 99 RU
- Amount of protein bound (RU) (Factor B [2]): 298 RU
- Amount of protein bound (RU) (Factor B [3]): 370 RU
- T½ of C3 convertase [4]: 18.3 h
